The binders below were run against T1, MHC class 1 allele A*02:01 (assay: REVEAL peptide-MHC binding assay, HLA-A*02:01).
T1 construct: also called HLA-A2; HLA-A*02:01

In order of falling REVEAL score:
1. ALSVMGVYV (also called p223; M9-A2-223) [MAGE-A9 223 (MAGE-A9 peptide antigen 223, ALSVMGVYV)]  199
2. FLWGSKAHA (also called p270; M9-A2-270) [MAGE-A9 270 (MAGE-A9 peptide antigen 270, FLWGSKAHA)]  173
3. LMLGEFLKL [SurA2.M (survivin peptide antigen HLA-A2, LMLGEFLKL)]  172
4. KVAELVHFL (also called p111) [MAGE-A9 111 (MAGE-A9 peptide antigen 111, KVAELVHFL)]  166

The binders below were run against T1, MHC class 1 allele A*02:01 (assay: REVEAL on-rate assay, HLA-A*02:01).

In order of rising “On-rate T1/2” value:
1. ALSVMGVYV (also called p223; M9-A2-223) [MAGE-A9 223 (MAGE-A9 peptide antigen 223, ALSVMGVYV)]  9.17 h
2. LMLGEFLKL [SurA2.M (survivin peptide antigen HLA-A2, LMLGEFLKL)]  9.36 h
3. FLWGSKAHA (also called p270; M9-A2-270) [MAGE-A9 270 (MAGE-A9 peptide antigen 270, FLWGSKAHA)]  9.43 h
4. KVAELVHFL (also called p111) [MAGE-A9 111 (MAGE-A9 peptide antigen 111, KVAELVHFL)]  9.52 h

These binders were tested against T1, MHC class 1 allele A*02:01 (assay: REVEAL off-rate assay, HLA-A*02:01).

FLWGSKAHA (also called p270; M9-A2-270) [MAGE-A9 270 (MAGE-A9 peptide antigen 270, FLWGSKAHA)] and LMLGEFLKL [SurA2.M (survivin peptide antigen HLA-A2, LMLGEFLKL)] cannot be ordered by “Off-rate T1/2” value: greater than 120 h for the first, greater than 120 h for the second.

ALSVMGVYV (also called p223; M9-A2-223) [MAGE-A9 223 (MAGE-A9 peptide antigen 223, ALSVMGVYV)] and KVAELVHFL (also called p111) [MAGE-A9 111 (MAGE-A9 peptide antigen 111, KVAELVHFL)] cannot be ordered by “Off-rate T1/2” value: greater than 120 h for the first, greater than 120 h for the second.

The binders below were run against T1, MHC class 1 allele A*02:01 (assay: REVEAL kinetic score, HLA-A*02:01).

In order of rising Kinetic score:
1. KVAELVHFL (also called p111) [MAGE-A9 111 (MAGE-A9 peptide antigen 111, KVAELVHFL)]  12.6
2. FLWGSKAHA (also called p270; M9-A2-270) [MAGE-A9 270 (MAGE-A9 peptide antigen 270, FLWGSKAHA)]  12.7
3. LMLGEFLKL [SurA2.M (survivin peptide antigen HLA-A2, LMLGEFLKL)]  12.8
4. ALSVMGVYV (also called p223; M9-A2-223) [MAGE-A9 223 (MAGE-A9 peptide antigen 223, ALSVMGVYV)]  13.1

These binders were tested against T1, MHC class 1 allele A*02:01 (assay: REVEAL R-score, HLA-A*02:01).

In order of falling R-score:
1. ALSVMGVYV (also called p223; M9-A2-223) [MAGE-A9 223 (MAGE-A9 peptide antigen 223, ALSVMGVYV)]  26
2. FLWGSKAHA (also called p270; M9-A2-270) [MAGE-A9 270 (MAGE-A9 peptide antigen 270, FLWGSKAHA)]  22.1
3. LMLGEFLKL [SurA2.M (survivin peptide antigen HLA-A2, LMLGEFLKL)]  22.1
4. KVAELVHFL (also called p111) [MAGE-A9 111 (MAGE-A9 peptide antigen 111, KVAELVHFL)]  20.9
